Molecular target: the molecule itself
Experiment: native MS; MS spectrum of the archaeal α/β assembly mixture (assembled without the 60 °C step), 150 mM ammonium acetate pH 7.5

B1: T. acidophilum 20S proteasome α-ring (α7), tag cleaved (natural protein, Thermoplasma acidophilum)
chain: MQQGQMAYDRAITVFSPDGRLFQVEYAREAVKKGSTALGMKFANGVLLISDKKVRSRLIEQNSIEKIQLIDDYVAAVTSGLVADARVLVDFARISAQQEKVTYGSLVNIENLVKRVADQMQQYTQYGGVRPYGVSLIFAGIDQIGPRLFDCDPAGTINEYKATAIGSGKDAVVSFLEREYKENLPEKEAVTLGIKALKSSLEEGEELKAPEIASITVGNKYRIYDQEEVKKFL
notes: proteasome subunit alpha, Thermoplasma acidophilum; source: E. coli BL21(DE3), purified (HisTrap FF, TEV cleavage), in the assembly mixture
stoichiometry N: 7
